Source: PMC11832770, “NADH-bound AIF activates the mitochondrial CHCHD4/MIA40 chaperone by a substrate-mimicry mechanism” (The EMBO Journal, 2025)

B1: CHCHD4-SPS (C53S/C55S), full length (natural protein, human, UniProt Q8N4Q1 1-142, looked up)
chain: MSYCRQEGKDRIIFVTKEDHETPSSAELVADDPNDPYEEHGLILPNGNINWNSPSLGGMASGPCGEQFKSAFSCFHYSTEEIKGSDCVDQFRAMQECMQKYPDLYPQEDEDEEEEREKKPAEQAEETAPIEATATKEEEGSS
notes: source: E. coli Rosetta2Gami(DE3), purified (Ni-NTA, PreScission cleavage, subtractive Ni-NTA, Superdex 75); not shown: GB1-6X-His, N-terminal, cleaved

Columns and labels:
[1] = molecular target: both import substrates; assay: ITC; 700-750 µM CPC-inactivated CHCHD4 constructs titrated into 50 µM unfolded substrate; 25 mM HEPES pH 7.5, 150 mM NaCl, 1 mM TCEP; 25 °C
[2] = molecular target: T1, Atto488-AIF(78-613)/NADH (human, UniProt O95831 78-613, ATTO 488 (NHS ester) on the N-terminus); assay: MST; CHCHD4 constructs titrated (1.8 nM–15 or 30 µM) into 100 nM Atto488-AIF(78-613) with unlabeled AIF and NADH (pre-formed charge-transfer complex); 25 mM HEPES pH 7.5, 150 mM NaCl, 0.01% Tween-20, 5 mM TCEP; 25 °C; first block of Table 1 (Fig. 1B); conditions: both partners purified
T1 construct: Apoptosis-inducing factor (AIF), human, residues 78-613; also called Atto488-AIF-NADH; Atto488-AIF/NADH

[3] = molecular target: T1, Atto488-AIF(78-613)/NADH; assay: MST; CHCHD4 interface mutants titrated (1.8 nM–15 or 30 µM) into 100 nM Atto488-AIF(78-613) with unlabeled AIF and NADH; same buffer, 25 °C; third block of Table 1 (Fig. 2A), fitted with a Hill coefficient; conditions: both partners purified
[4] = molecular target: B1; assay: MST; CHCHD4-SPS titrated (15 nM–30 µM) into 100 nM unfolded Atto488-ΔN-CHCHD4-SPS in the presence of AIF(78-613) and NADH (2x stock 30 µM AIF/300 µM NADH); 25 mM HEPES pH 7.5, 150 mM NaCl, 0.01% Tween-20, 5 mM TCEP; 25 °C; a sample with added CHCHD4-N45 showed decreased binding; conditions: both partners purified
[5] = molecular target: T2, CHCHD6, unfolded and reduced (human, UniProt Q9BRQ6 1-235); assay: ITC; 700-750 µM CPC-inactivated CHCHD4 constructs titrated into 50 µM unfolded substrate; 25 mM HEPES pH 7.5, 150 mM NaCl, 1 mM TCEP; 25 °C; conditions: both partners purified
T2 construct: CHCHD6 (MIC25), human, CX9C import substrate; construct from the DNASU Plasmid Repository inserted into pET30a; also called unfolded CHCHD6 substrate; MIC25; source: E. coli Rosetta2Gami(DE3), purified; unfolded by heating at 70 °C for 20 min with TCEP; not shown: GB1-6X-His, N-terminal, cleaved
T2 sequence (looked up): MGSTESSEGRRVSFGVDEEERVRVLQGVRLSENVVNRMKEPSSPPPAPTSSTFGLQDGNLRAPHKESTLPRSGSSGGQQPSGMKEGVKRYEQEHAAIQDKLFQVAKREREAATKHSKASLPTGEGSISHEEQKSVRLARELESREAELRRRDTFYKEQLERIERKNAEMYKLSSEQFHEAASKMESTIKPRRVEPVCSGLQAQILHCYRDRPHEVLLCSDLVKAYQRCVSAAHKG

[6] = molecular target: the molecule itself; assay: SEC; Superdex 75 10/300, 25 mM HEPES pH 7.5, 150 mM NaCl, without reducing agent (also ± 5 mM βME and after 0-10 mM TCEP); 200 µM samples; monomer against disulfide-mediated dimer
[7] = molecular target: T3, CHCHD4-AIA-A-SPS (I12A/F14A/H20A/C53S/C55S) (human, UniProt Q8N4Q1 1-142, I12A | F14A | H20A | C53S | C55S); assay: ITC
T3 sequence: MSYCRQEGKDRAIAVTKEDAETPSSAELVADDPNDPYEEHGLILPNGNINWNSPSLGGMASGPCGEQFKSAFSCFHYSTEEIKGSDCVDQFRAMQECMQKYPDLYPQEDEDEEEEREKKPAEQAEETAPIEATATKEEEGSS

[8] = molecular target: T4, CHCHD4-SPS (C53S/C55S), full length (human, UniProt Q8N4Q1 1-142, C53S | C55S); assay: ITC
T4 sequence: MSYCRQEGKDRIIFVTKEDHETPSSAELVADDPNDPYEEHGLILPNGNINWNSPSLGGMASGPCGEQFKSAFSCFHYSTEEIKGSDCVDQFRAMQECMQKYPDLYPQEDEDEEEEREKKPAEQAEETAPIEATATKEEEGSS

[9] = molecular target: T5, ΔN-CHCHD4-SPS (residues 40-142, C53S/C55S) (human, UniProt Q8N4Q1 40-142, C53S | C55S); assay: ITC
T5 sequence: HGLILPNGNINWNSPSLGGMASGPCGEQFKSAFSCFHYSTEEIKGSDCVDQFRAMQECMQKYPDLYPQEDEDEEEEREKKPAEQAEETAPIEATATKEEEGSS

[10] = molecular target: T6, CHCHD4-AIA-A-SPS (I12A/F14A/H20A/C53S/C55S) (human, UniProt Q8N4Q1 1-142, I12A | F14A | H20A | C53S | C55S, heat-unfolded and TCEP-reduced (free cysteines). The printed accession E5RGN4 is not among the candidates; the canonical human CHCHD10 entry Q8WYQ3 (used for the AlphaFold model) is taken instead. …); assay: ITC
T6 sequence: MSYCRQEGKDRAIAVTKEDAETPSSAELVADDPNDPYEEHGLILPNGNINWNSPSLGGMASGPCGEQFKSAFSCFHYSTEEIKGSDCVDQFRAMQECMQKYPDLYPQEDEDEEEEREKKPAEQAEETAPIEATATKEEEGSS

[11] = molecular target: T7, CHCHD4-SPS (C53S/C55S), full length (human, UniProt Q8N4Q1 1-142, C53S | C55S, heat-unfolded and TCEP-reduced (free cysteines). The printed accession E5RGN4 is not among the candidates; the canonical human CHCHD10 entry Q8WYQ3 (used for the AlphaFold model) is taken instead. …); assay: ITC
T7 sequence: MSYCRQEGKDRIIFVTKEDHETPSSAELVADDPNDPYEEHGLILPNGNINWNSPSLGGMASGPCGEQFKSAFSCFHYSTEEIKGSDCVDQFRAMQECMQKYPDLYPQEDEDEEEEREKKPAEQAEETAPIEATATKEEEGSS

[12] = molecular target: T8, ΔN-CHCHD4-SPS (residues 40-142, C53S/C55S) (human, UniProt Q8N4Q1 40-142, C53S | C55S, heat-unfolded and TCEP-reduced (free cysteines). The printed accession E5RGN4 is not among the candidates; the canonical human CHCHD10 entry Q8WYQ3 (used for the AlphaFold model) is taken instead. …); assay: ITC
T8 sequence: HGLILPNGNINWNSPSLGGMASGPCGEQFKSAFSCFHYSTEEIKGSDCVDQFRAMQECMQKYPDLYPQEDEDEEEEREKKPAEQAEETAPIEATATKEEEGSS

[13] = molecular target: T9, AIF(104-613)-W196A (human, UniProt O95831 104-613, W196A); assay: crystal structure; AIF(104-613)-W196A-CHCHD4(1-45) chimera, hanging drop, 0.1 M HEPES pH 8, 0.1 M NaCl, 18% PEG3350; CHCHD4 N45 linked to the C-terminus of AIF by …; AIF dimer with N45 resolved on both monomers; conditions: both partners purified
T9 construct: Apoptosis-inducing factor (AIF), human, residues 104-613; Stands only for the AIF half of the crystallised chimera, so that the AIF-CHCHD4 contact can be written as a pair; also called dimer-permissive AIF (104-613) W196A mutant; source: E. coli Rosetta2(DE3), purified, as the AIF part of the chimera m17
T9 sequence (O95831 104-613 W196A): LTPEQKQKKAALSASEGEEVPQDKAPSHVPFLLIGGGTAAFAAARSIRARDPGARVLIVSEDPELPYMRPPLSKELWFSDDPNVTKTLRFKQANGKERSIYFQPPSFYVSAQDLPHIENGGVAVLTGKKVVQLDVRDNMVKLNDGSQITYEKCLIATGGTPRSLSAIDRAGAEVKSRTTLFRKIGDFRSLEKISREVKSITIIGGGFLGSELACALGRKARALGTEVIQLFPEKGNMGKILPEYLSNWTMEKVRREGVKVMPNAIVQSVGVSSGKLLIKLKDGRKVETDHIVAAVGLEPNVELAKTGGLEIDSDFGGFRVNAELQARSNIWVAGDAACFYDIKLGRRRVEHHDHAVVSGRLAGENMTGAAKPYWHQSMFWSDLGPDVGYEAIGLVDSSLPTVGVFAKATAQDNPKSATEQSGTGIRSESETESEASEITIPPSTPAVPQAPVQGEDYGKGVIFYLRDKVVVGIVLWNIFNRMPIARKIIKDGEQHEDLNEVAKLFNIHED

T1 sequence (O95831 78-613): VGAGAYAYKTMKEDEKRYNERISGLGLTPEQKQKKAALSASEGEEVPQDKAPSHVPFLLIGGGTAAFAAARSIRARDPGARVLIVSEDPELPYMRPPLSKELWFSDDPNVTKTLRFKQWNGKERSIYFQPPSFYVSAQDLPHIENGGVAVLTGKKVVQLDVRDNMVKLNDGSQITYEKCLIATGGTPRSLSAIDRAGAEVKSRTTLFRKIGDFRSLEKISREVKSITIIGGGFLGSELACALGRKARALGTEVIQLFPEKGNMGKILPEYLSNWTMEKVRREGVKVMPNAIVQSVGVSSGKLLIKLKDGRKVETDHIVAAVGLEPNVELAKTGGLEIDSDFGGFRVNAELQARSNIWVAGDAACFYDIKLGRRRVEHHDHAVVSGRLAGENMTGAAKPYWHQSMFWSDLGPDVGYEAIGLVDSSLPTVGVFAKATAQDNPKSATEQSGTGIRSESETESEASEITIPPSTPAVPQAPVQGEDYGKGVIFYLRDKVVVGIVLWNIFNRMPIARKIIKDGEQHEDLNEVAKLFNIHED

B1
Kd [1]: 18 to 40 µM | Kd [2]: 0.23 µM

B2: CHCHD4, wild type, full length (natural protein, human, UniProt Q8N4Q1 1-142, looked up)
chain: MSYCRQEGKDRIIFVTKEDHETPSSAELVADDPNDPYEEHGLILPNGNINWNCPCLGGMASGPCGEQFKSAFSCFHYSTEEIKGSDCVDQFRAMQECMQKYPDLYPQEDEDEEEEREKKPAEQAEETAPIEATATKEEEGSS
notes: also called CHCHD4-WT; MIA40; source: E. coli Rosetta2Gami(DE3), purified (Ni-NTA, PreScission cleavage, subtractive Ni-NTA, Superdex 75); not shown: GB1-6X-His, N-terminal, cleaved
Kd [3]: 0.18 µM | Kd [2]: 0.58 µM

B3: Atto488-ΔN-CHCHD4-SPS, unfolded (domain or fragment, human, UniProt Q8N4Q1 40-142, looked up)
chain: HGLILPNGNINWNSPSLGGMASGPCGEQFKSAFSCFHYSTEEIKGSDCVDQFRAMQECMQKYPDLYPQEDEDEEEEREKKPAEQAEETAPIEATATKEEEGSS
modifications: ATTO 488 (NHS ester) on the N-terminus
notes: also called unfolded CHCH substrate; unfolded fluorescent substrate; not shown: GB1-6X-His, N-terminal, cleaved
binding result [4]: binds

B4: CHCHD4-AIA-A-SPS (I12A/F14A/H20A/C53S/C55S) (natural protein, human, UniProt Q8N4Q1 1-142, looked up)
chain: MSYCRQEGKDRAIAVTKEDAETPSSAELVADDPNDPYEEHGLILPNGNINWNSPSLGGMASGPCGEQFKSAFSCFHYSTEEIKGSDCVDQFRAMQECMQKYPDLYPQEDEDEEEEREKKPAEQAEETAPIEATATKEEEGSS
notes: CHCHD4/MIA40, human, full length; source: E. coli Rosetta2Gami(DE3), purified (Ni-NTA, PreScission cleavage, subtractive Ni-NTA, Superdex 75); not shown: GB1-6X-His, N-terminal, cleaved
binding result [5]: binds

B5: CHCHD4-AIA (I12A/F14A) (natural protein, human, UniProt Q8N4Q1 1-142, looked up)
chain: MSYCRQEGKDRAIAVTKEDHETPSSAELVADDPNDPYEEHGLILPNGNINWNCPCLGGMASGPCGEQFKSAFSCFHYSTEEIKGSDCVDQFRAMQECMQKYPDLYPQEDEDEEEEREKKPAEQAEETAPIEATATKEEEGSS
notes: CHCHD4/MIA40, human, full length; The methods print F12A/I14A for this mutant; the results print I12A/F14A; also called β-hairpin mutant; source: E. coli Rosetta2Gami(DE3), purified (Ni-NTA, PreScission cleavage, subtractive Ni-NTA, Superdex 75); not shown: GB1-6X-His, N-terminal, cleaved
Kd [3]: 3 µM

B6: CHCHD4-L28D (natural protein, human, UniProt Q8N4Q1 1-142, looked up)
chain: MSYCRQEGKDRIIFVTKEDHETPSSAEDVADDPNDPYEEHGLILPNGNINWNCPCLGGMASGPCGEQFKSAFSCFHYSTEEIKGSDCVDQFRAMQECMQKYPDLYPQEDEDEEEEREKKPAEQAEETAPIEATATKEEEGSS
notes: as for B4
Kd [3]: 0.24 µM

B7: ΔN-CHCHD4-SPS (residues 40-142, C53S/C55S) (domain or fragment, human, UniProt Q8N4Q1 40-142, looked up)
chain: HGLILPNGNINWNSPSLGGMASGPCGEQFKSAFSCFHYSTEEIKGSDCVDQFRAMQECMQKYPDLYPQEDEDEEEEREKKPAEQAEETAPIEATATKEEEGSS
notes: Folded, as titrant in ITC and in analytical SEC; also called ΔN-SPS; source: E. coli Rosetta2Gami(DE3), purified (Ni-NTA, PreScission cleavage, subtractive Ni-NTA, Superdex 75); not shown: GB1-6X-His, N-terminal, cleaved
binding result [5]: binds

B8: ΔN-CHCHD4 (residues 40-142) (domain or fragment, human, UniProt Q8N4Q1 40-142, looked up)
chain: HGLILPNGNINWNCPCLGGMASGPCGEQFKSAFSCFHYSTEEIKGSDCVDQFRAMQECMQKYPDLYPQEDEDEEEEREKKPAEQAEETAPIEATATKEEEGSS
notes: also called N-terminal truncation mutant; source: E. coli Rosetta2Gami(DE3), purified (Ni-NTA, PreScission cleavage, subtractive Ni-NTA, Superdex 75); not shown: GB1-6X-His, N-terminal, cleaved
binding result [6]: binds

B9: CHCHD6, unfolded and reduced (natural protein)
chain: MGSTESSEGRRVSFGVDEEERVRVLQGVRLSENVVNRMKEPSSPPPAPTSSTFGLQDGNLRAPHKESTLPRSGSSGGQQPSGMKEGVKRYEQEHAAIQDKLFQVAKREREAATKHSKASLPTGEGSISHEEQKSVRLARELESREAELRRRDTFYKEQLERIERKNAEMYKLSSEQFHEAASKMESTIKPRRVEPVCSGLQAQILHCYRDRPHEVLLCSDLVKAYQRCVSAAHKG
Kd [7]: 8.3 µM | Kd [8]: 26.5 µM | Kd [9]: 14.9 µM

B10: CHCHD10, unfolded and reduced (natural protein)
chain: MPRGSRSAASRPASRPAAPSAHPPAHPPPSAAAPAPAPSGQPGLMAQMATTAAGVAVGSAVGHVMGSALTGAFSGGSSEPSQPAVQQAPTPAAPQPLQMGPCAYEIRQFLDCSTTQSDLSLCEGFSEALKQCKYYHGLSSLP
Kd [10]: 4.5 µM | Kd [11]: 20.4 µM | Kd [12]: 6.4 µM

B11: CHCHD4-N45 (residues 1-45) (domain or fragment, human, UniProt Q8N4Q1 1-45, looked up)
chain: MSYCRQEGKDRIIFVTKEDHETPSSAELVADDPNDPYEEHGLILP
notes: In the crystal structure (PDB 8VGY) the same residues 1-45 stood linked to the C-terminus of AIF(104-613)-W196A; also called CHCHD4(1-45); source: E. coli Rosetta2Gami(DE3), purified (Ni-NTA, PreScission cleavage, subtractive Ni-NTA, Superdex 75); not shown: GB1-6X-His, N-terminal, cleaved
Kd [2]: 0.63 µM | binding result [13]: binds
